The target in this experiment is B7-1 on stably transfected B7-1+ Chinese hamster ovary (CHO) cells (human) (UniProt P33681). Briefly: ELISA. On the technique in general: ELISA stands for enzyme-linked immunosorbent assay.
Sequence of UniProt P33681 (P33681 35-288): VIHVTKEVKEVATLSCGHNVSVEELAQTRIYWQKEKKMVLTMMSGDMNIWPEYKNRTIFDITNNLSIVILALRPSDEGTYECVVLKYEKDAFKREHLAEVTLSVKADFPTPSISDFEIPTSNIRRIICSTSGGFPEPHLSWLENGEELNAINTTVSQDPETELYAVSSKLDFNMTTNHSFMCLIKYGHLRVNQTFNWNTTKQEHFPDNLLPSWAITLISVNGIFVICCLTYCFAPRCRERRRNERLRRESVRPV
CTLA4Ig M99A (Fc fusion) yielded a percentage of B7-1 binding activity (of CTLA4Ig) of less than 0.1%.
In the case of CTLA4Ig P102A (Fc fusion), the percentage of B7-1 binding activity (of CTLA4Ig) was determined as 3%.
As for CTLA4Ig P103A (Fc fusion), the figure is less than 0.1%.
As for CTLA4Ig Y100A (Fc fusion), the figure is 3%; as for CTLA4Ig Y104A (Fc fusion), less than 0.1%.

Source of the values: publication PMC2191786.
